Reference: the supplement of paper PMC12783771
± gives the standard deviation of the averaged measurements.

B1: library; numbered along this chain (parent)
chain: MNIQIGELAKRTACPVVTIRFYEQEGLLPPPGRSRGNFRLYGEEHVERLQFIRHCRSLDMPLSDVRTLLSYRKRPDQDCGEVNMLLDEHIRQVESRIGALLELKHHLVELREACSGARPAQSCGILQGLSDCVCDTRGTTAHPSD

How the values were obtained:
[1] = variants of: B1; test: sfGFP reporter fluorescence (15 h) (µM FITC); higher = higher leak; conditions: library round: Round 0; ligand: none
Outline: (§1)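 Values are endpoint sfGFP fluorescence given as µM FITC equivalents. Fluorescence was read at 485/528 nm on a Synergy Neo2, and FITC standard curves were prepared in 50 mM sodium borate pH 8.5. Reactions of 1 μL combined BL21 Star (DE3) PANOx-SP extract, pPbrR-sfGFP reporter, 30 μg/mL GamS and linear PbrR templates (PCR-made, Echo-normalized to 5 nM), with 1 µM lead chloride, 30 µM zinc acetate or no metal, for 15 hr at 30 °C.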

[2] = variants of: B1; test: sfGFP reporter fluorescence (15 h) (µM FITC); higher = stronger transcriptional activation; conditions: library round: Round 0
Outline: as §1

## P119A
[1]
  sfGFP reporter fluorescence: 0.05992 ± 0.00026
[2]; ligand: 1 µM Pb
  sfGFP reporter fluorescence: 0.0629 ± 0.0029
[2]; ligand: 30 µM Zn
  sfGFP reporter fluorescence: 0.477 ± 0.05

## C123E
[1]
  sfGFP reporter fluorescence: 0.0583 ± 0.001
[2]; ligand: 1 µM Pb
  sfGFP reporter fluorescence: 0.0588 ± 0.00078
[2]; ligand: 30 µM Zn
  sfGFP reporter fluorescence: 0.0557 ± 0.001

## C123M
[1]
  sfGFP reporter fluorescence: 0.057 ± 0.0013
[2]; ligand: 1 µM Pb
  sfGFP reporter fluorescence: 0.0577 ± 0.00078
[2]; ligand: 30 µM Zn
  sfGFP reporter fluorescence: 0.0544 ± 0.0034

## C123K
[1]
  sfGFP reporter fluorescence: 0.0592 ± 0.0039
[2]; ligand: 1 µM Pb
  sfGFP reporter fluorescence: 0.0597 ± 0.001
[2]; ligand: 30 µM Zn
  sfGFP reporter fluorescence: 0.0574 ± 0.0029

## C123G
[1]
  sfGFP reporter fluorescence: 0.0535 ± 0.001
[2]; ligand: 1 µM Pb
  sfGFP reporter fluorescence: 0.0552 ± 0.0013
[2]; ligand: 30 µM Zn
  sfGFP reporter fluorescence: 0.0502 ± 0.0015

## C123S
[1]
  sfGFP reporter fluorescence: 0.0575 ± 0.0021
[2]; ligand: 1 µM Pb
  sfGFP reporter fluorescence: 0.0575 ± 0.001
[2]; ligand: 30 µM Zn
  sfGFP reporter fluorescence: 0.0552 ± 0.0018

## C123T
[1]
  sfGFP reporter fluorescence: 0.0586 ± 0.0021
[2]; ligand: 1 µM Pb
  sfGFP reporter fluorescence: 0.0572 ± 0.0015
[2]; ligand: 30 µM Zn
  sfGFP reporter fluorescence: 0.0568 ± 0.0036

## C123V
[1]
  sfGFP reporter fluorescence: 0.05589 ± 0.00026
[2]; ligand: 1 µM Pb
  sfGFP reporter fluorescence: 0.0579 ± 0.0015
[2]; ligand: 30 µM Zn
  sfGFP reporter fluorescence: 0.0541 ± 0.0018

## C123Y
[1]
  sfGFP reporter fluorescence: 0.0586 ± 0.0015
[2]; ligand: 1 µM Pb
  sfGFP reporter fluorescence: 0.0579
[2]; ligand: 30 µM Zn
  sfGFP reporter fluorescence: 0.0546 ± 0.0026

## C123L
[1]
  sfGFP reporter fluorescence: 0.05589 ± 0.00026
[2]; ligand: 1 µM Pb
  sfGFP reporter fluorescence: 0.0566 ± 0.0018
[2]; ligand: 30 µM Zn
  sfGFP reporter fluorescence: 0.0542 ± 0.0021

## C123P
[1]
  sfGFP reporter fluorescence: 0.0559 ± 0.00078
[2]; ligand: 1 µM Pb
  sfGFP reporter fluorescence: 0.05772 ± 0.00026
[2]; ligand: 30 µM Zn
  sfGFP reporter fluorescence: 0.0526 ± 0.00078

## C123H
[1]
  sfGFP reporter fluorescence: 0.0588 ± 0.0018
[2]; ligand: 1 µM Pb
  sfGFP reporter fluorescence: 0.05901 ± 0.00052
[2]; ligand: 30 µM Zn
  sfGFP reporter fluorescence: 0.0561 ± 0.0021

## C123F
[1]
  sfGFP reporter fluorescence: 0.0564 ± 0.0015
[2]; ligand: 1 µM Pb
  sfGFP reporter fluorescence: 0.0577 ± 0.00078
[2]; ligand: 30 µM Zn
  sfGFP reporter fluorescence: 0.0528 ± 0.0015

## C123D
[1]
  sfGFP reporter fluorescence: 0.0577 ± 0.0039
[2]; ligand: 1 µM Pb
  sfGFP reporter fluorescence: 0.0586
[2]; ligand: 30 µM Zn
  sfGFP reporter fluorescence: 0.0564 ± 0.0031

## C123W
[1]
  sfGFP reporter fluorescence: 0.0575 ± 0.001
[2]; ligand: 1 µM Pb
  sfGFP reporter fluorescence: 0.05919 ± 0.00026
[2]; ligand: 30 µM Zn
  sfGFP reporter fluorescence: 0.0546 ± 0.0026

## C123Q
[1]
  sfGFP reporter fluorescence: 0.0585 ± 0.00078
[2]; ligand: 1 µM Pb
  sfGFP reporter fluorescence: 0.05809 ± 0.00026
[2]; ligand: 30 µM Zn
  sfGFP reporter fluorescence: 0.0546 ± 0.0015

## C123A
[1]
  sfGFP reporter fluorescence: 0.0575 ± 0.001
[2]; ligand: 1 µM Pb
  sfGFP reporter fluorescence: 0.0553
[2]; ligand: 30 µM Zn
  sfGFP reporter fluorescence: 0.0533 ± 0.00078

## C123I
[1]
  sfGFP reporter fluorescence: 0.05479 ± 0.00026
[2]; ligand: 1 µM Pb
  sfGFP reporter fluorescence: 0.0553 ± 0.001
[2]; ligand: 30 µM Zn
  sfGFP reporter fluorescence: 0.0517 ± 0.0021

## C123R
[1]
  sfGFP reporter fluorescence: 0.0599 ± 0.0023
[2]; ligand: 1 µM Pb
  sfGFP reporter fluorescence: 0.061 ± 0.00078
[2]; ligand: 30 µM Zn
  sfGFP reporter fluorescence: 0.0574 ± 0.0044

## C123N
[1]
  sfGFP reporter fluorescence: 0.0599 ± 0.0018
[2]; ligand: 1 µM Pb
  sfGFP reporter fluorescence: 0.0561 ± 0.0015
[2]; ligand: 30 µM Zn
  sfGFP reporter fluorescence: 0.05498 ± 0.00052

## Q127A
[1]
  sfGFP reporter fluorescence: 0.0724 ± 0.0018
[2]; ligand: 1 µM Pb
  sfGFP reporter fluorescence: 0.0793 ± 0.0049
[2]; ligand: 30 µM Zn
  sfGFP reporter fluorescence: 0.299 ± 0.047

## S122A
[1]
  sfGFP reporter fluorescence: 0.06249 ± 0.00026
[2]; ligand: 1 µM Pb
  sfGFP reporter fluorescence: 0.0762 ± 0.0015
[2]; ligand: 30 µM Zn
  sfGFP reporter fluorescence: 0.687 ± 0.05

## D135Q
[1]
  sfGFP reporter fluorescence: 0.0574 ± 0.0023
[2]; ligand: 1 µM Pb
  sfGFP reporter fluorescence: 0.0826 ± 0.0023
[2]; ligand: 30 µM Zn
  sfGFP reporter fluorescence: 1.28 ± 0.13

## D135T
[1]
  sfGFP reporter fluorescence: 0.0608
[2]; ligand: 1 µM Pb
  sfGFP reporter fluorescence: 0.088 ± 0.001
[2]; ligand: 30 µM Zn
  sfGFP reporter fluorescence: 1.13 ± 0.12

## D135K
[1]
  sfGFP reporter fluorescence: 0.0618 ± 0.0018
[2]; ligand: 1 µM Pb
  sfGFP reporter fluorescence: 0.085 ± 0.0015
[2]; ligand: 30 µM Zn
  sfGFP reporter fluorescence: 0.962 ± 0.052

## D135G
[1]
  sfGFP reporter fluorescence: 0.0531
[2]; ligand: 1 µM Pb
  sfGFP reporter fluorescence: 0.0764 ± 0.0023
[2]; ligand: 30 µM Zn
  sfGFP reporter fluorescence: 0.802 ± 0.074

## D135P
[1]
  sfGFP reporter fluorescence: 0.0557 ± 0.0036
[2]; ligand: 1 µM Pb
  sfGFP reporter fluorescence: 0.0826 ± 0.0049
[2]; ligand: 30 µM Zn
  sfGFP reporter fluorescence: 0.672 ± 0.09

## D135M
[1]
  sfGFP reporter fluorescence: 0.0636 ± 0.0018
[2]; ligand: 1 µM Pb
  sfGFP reporter fluorescence: 0.09639 ± 0.00052
[2]; ligand: 30 µM Zn
  sfGFP reporter fluorescence: 2.2 ± 0.33

## D135F
[1]
  sfGFP reporter fluorescence: 0.0718 ± 0.001
[2]; ligand: 1 µM Pb
  sfGFP reporter fluorescence: 0.138 ± 0.0065
[2]; ligand: 30 µM Zn
  sfGFP reporter fluorescence: 1.49 ± 0.28

## D135S
[1]
  sfGFP reporter fluorescence: 0.06011 ± 0.00052
[2]; ligand: 1 µM Pb
  sfGFP reporter fluorescence: 0.08723 ± 0.00052
[2]; ligand: 30 µM Zn
  sfGFP reporter fluorescence: 0.988 ± 0.095

## D135C
[1]
  sfGFP reporter fluorescence: 0.0603 ± 0.0013
[2]; ligand: 1 µM Pb
  sfGFP reporter fluorescence: 0.0792 ± 0.0036
[2]; ligand: 30 µM Zn
  sfGFP reporter fluorescence: 1.73 ± 0.12

## D135L
[1]
  sfGFP reporter fluorescence: 0.059
[2]; ligand: 1 µM Pb
  sfGFP reporter fluorescence: 0.0898 ± 0.0026
[2]; ligand: 30 µM Zn
  sfGFP reporter fluorescence: 1.55 ± 0.24

## D135E
[1]
  sfGFP reporter fluorescence: 0.0579 ± 0.0021
[2]; ligand: 1 µM Pb
  sfGFP reporter fluorescence: 0.0724 ± 0.0029
[2]; ligand: 30 µM Zn
  sfGFP reporter fluorescence: 0.648 ± 0.055

## D135A
[1]
  sfGFP reporter fluorescence: 0.0733 ± 0.0015
[2]; ligand: 1 µM Pb
  sfGFP reporter fluorescence: 0.0834 ± 0.0029
[2]; ligand: 30 µM Zn
  sfGFP reporter fluorescence: 0.335 ± 0.0078

## D135W
[1]
  sfGFP reporter fluorescence: 0.0737 ± 0.0036
[2]; ligand: 1 µM Pb
  sfGFP reporter fluorescence: 0.146 ± 0.012
[2]; ligand: 30 µM Zn
  sfGFP reporter fluorescence: 1.83 ± 0.17

## D135H
[1]
  sfGFP reporter fluorescence: 0.0665 ± 0.0018
[2]; ligand: 1 µM Pb
  sfGFP reporter fluorescence: 0.107 ± 0.0042
[2]; ligand: 30 µM Zn
  sfGFP reporter fluorescence: 2.14 ± 0.068

## D135R
[1]
  sfGFP reporter fluorescence: 0.06267 ± 0.00052
[2]; ligand: 1 µM Pb
  sfGFP reporter fluorescence: 0.098 ± 0.0086
[2]; ligand: 30 µM Zn
  sfGFP reporter fluorescence: 0.909 ± 0.043

## D135V
[1]
  sfGFP reporter fluorescence: 0.059 ± 0.001
[2]; ligand: 1 µM Pb
  sfGFP reporter fluorescence: 0.081 ± 0.0015
[2]; ligand: 30 µM Zn
  sfGFP reporter fluorescence: 1.06 ± 0.13

## D135N
[1]
  sfGFP reporter fluorescence: 0.0588 ± 0.0034
[2]; ligand: 1 µM Pb
  sfGFP reporter fluorescence: 0.0847 ± 0.0078
[2]; ligand: 30 µM Zn
  sfGFP reporter fluorescence: 1.18 ± 0.32

## D135I
[1]
  sfGFP reporter fluorescence: 0.0614 ± 0.0018
[2]; ligand: 1 µM Pb
  sfGFP reporter fluorescence: 0.0927 ± 0.0031
[2]; ligand: 30 µM Zn
  sfGFP reporter fluorescence: 1.72 ± 0.18

## D135Y
[1]
  sfGFP reporter fluorescence: 0.0676 ± 0.0039
[2]; ligand: 1 µM Pb
  sfGFP reporter fluorescence: 0.116 ± 0.0073
[2]; ligand: 30 µM Zn
  sfGFP reporter fluorescence: 1.46 ± 0.17

## D131I
[1]
  sfGFP reporter fluorescence: 0.0607 ± 0.0029
[2]; ligand: 1 µM Pb
  sfGFP reporter fluorescence: 0.0797 ± 0.0049
[2]; ligand: 30 µM Zn
  sfGFP reporter fluorescence: 0.832 ± 0.073

## D131A
[1]
  sfGFP reporter fluorescence: 0.0691 ± 0.00078
[2]; ligand: 1 µM Pb
  sfGFP reporter fluorescence: 0.1098 ± 0.00078
[2]; ligand: 30 µM Zn
  sfGFP reporter fluorescence: 1.141 ± 0.0013

## D131R
[1]
  sfGFP reporter fluorescence: 0.0733 ± 0.00052
[2]; ligand: 1 µM Pb
  sfGFP reporter fluorescence: 0.17 ± 0.022
[2]; ligand: 30 µM Zn
  sfGFP reporter fluorescence: 1.65 ± 0.29
